Measured values published in PMC9046087, “Structural basis of tethered agonism of the adhesion GPCRs ADGRD1 and ADGRF1” (Nature, 2022).
Residue numbers refer to the chain shown, from its start. One block for each molecule: values may come before it.

Assays:
ADGRF1 [1] = settings: cited from earlier work
[2] = system: neurogenesis, neuritogenesis and synaptogenesis; settings: ref [35]; cited from earlier work
ADGRF1 [3] = test: Identification of phospholipid ligands by LC–MS/MS; assay type: binding, human
Experimental: The identification of phospholipids specifically bound to ADGRF1 was performed as previously described[33],[50] with minor modifications. In brief, ADGRF1 and control ADGRD1 protein were reduced with 5 mM TCEP at 25 °C for 30 min and alkylated with 20 mM idoacetamide at 25 °C for 30 min. Then the protein samples were digested with trypsin (Promega) at an enzyme-to-protein ratio of 1:50 (w/w) at 37 °C overnight. The digested proteins were dried in a vacuum concentrator and then extracted with 400 μl of ice-cold methanol:water (9:1, v/v) by vortex and sonication. After centrifugation at 12,000g for 15 min at 4 °C, the supernatants were collected and lyophilized under vacuum. The lipid extracts were resuspended in methanol:chloroform (9:1, v/v) to an equivalent concentration of 2 μM. Samples were analysed on a Q Exactive mass spectrometer (Thermo Fisher Scientific) operating in the positive ion mode coupled to a Waters Acquity UPLC system (Waters). […] The specificity of lipid binding to ADGRF1 was assessed by the ratio of EIC peak areas for each lipid in the ADGRF1 versus the control sample. […]

[4] = target: T1, ADGRF1 (GPR110), residues V251–K860 (ADGRF1-construct 1) (human) (UniProt Q5T601)
T1 sequence: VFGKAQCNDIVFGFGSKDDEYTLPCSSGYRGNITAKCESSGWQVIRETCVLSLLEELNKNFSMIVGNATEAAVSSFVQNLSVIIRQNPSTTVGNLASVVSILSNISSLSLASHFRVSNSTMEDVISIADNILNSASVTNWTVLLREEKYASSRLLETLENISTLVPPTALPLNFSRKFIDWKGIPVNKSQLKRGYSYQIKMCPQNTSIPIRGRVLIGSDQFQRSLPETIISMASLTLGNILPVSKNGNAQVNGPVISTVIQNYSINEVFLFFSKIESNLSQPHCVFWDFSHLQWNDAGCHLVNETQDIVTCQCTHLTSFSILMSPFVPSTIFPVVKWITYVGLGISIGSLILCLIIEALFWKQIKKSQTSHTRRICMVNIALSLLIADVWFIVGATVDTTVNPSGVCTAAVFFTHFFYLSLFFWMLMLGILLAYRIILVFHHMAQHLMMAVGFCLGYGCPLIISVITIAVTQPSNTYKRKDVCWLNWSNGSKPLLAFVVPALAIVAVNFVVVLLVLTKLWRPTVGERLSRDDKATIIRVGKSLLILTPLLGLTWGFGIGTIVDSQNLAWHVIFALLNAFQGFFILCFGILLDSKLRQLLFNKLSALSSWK

ADGRD1 = test: Cell-surface expression by flow cytometry, ADGRD1; assay type: cell-based, human; settings: ADGRD1 constructs (pD1 Gs part of table), anti-Flag antibody, three independent measurements in duplicate
Experimental: The wild-type ADGRD1 and ADGRF1 and mutants used in functional studies were constructed into a pTT5 vector with a Flag tag at the N terminus for receptor expression measurement. The basal activity of ADGRD1 and ADGRF1 in mediating Gs signalling was measured by a cAMP accumulation assay using a LANCE Ultra cAMP detection kit (PerkinElmer) following the manufacturer’s instruction. In brief, 2 ml HEK293F cells (Invitrogen; cells were routinely tested for mycoplasma contamination) at a density of 1.2 × 10^6 cells per ml were transiently transfected with 2,000 ng plasmid of the wild-type or mutant receptor and cultured at 37 °C for 48 h with 5% CO2 atmosphere in a shaker shaking at 220 rpm. After collection, the cell-surface expression of the receptors was measured by incubating 10 μl cells with 15 μl monoclonal anti-Flag M2-FITC antibody (Sigma; 1:120 diluted in TBS supplemented with 4% BSA and 20% viability staining solution 7-AAD (Invitrogen)) at 4 °C for 20 min. After incubation, 175 μl TBS buffer was added and the fluorescent signal was measured using a flow cytometry reader (Guava easyCyte HT, Millipore).

[5] = target: T2, ADGRD1 (GPR133), residues T545–T827 (ADGRD1-construct) (human) (UniProt Q6QNK2)
T2 sequence: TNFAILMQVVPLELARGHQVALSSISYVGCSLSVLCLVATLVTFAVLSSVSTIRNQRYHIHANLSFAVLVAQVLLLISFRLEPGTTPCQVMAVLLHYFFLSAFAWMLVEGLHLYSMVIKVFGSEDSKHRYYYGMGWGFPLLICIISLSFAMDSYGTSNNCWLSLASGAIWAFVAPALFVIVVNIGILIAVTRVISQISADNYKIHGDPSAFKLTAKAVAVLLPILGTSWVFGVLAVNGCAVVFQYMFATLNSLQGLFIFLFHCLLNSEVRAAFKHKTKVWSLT

Molecule: CC/C=C\C/C=C\C/C=C\C/C=C\C/C=C\C/C=C\CCC(=O)NCCO [synaptamide, N-docosahexaenoylethanolamine]
- stalk dependence of ADGRF1 activation (ADGRF1 [1]; believed to act through the extracellular GAIN domain, ref [36]): activates the receptor in a stalk-independent manner
- agonism at ADGRF1 (ADGRF1 [1]; ref [35]): endogenous small-molecule agonist for ADGRF1
- neurogenesis, neuritogenesis and synaptogenesis [2]: promotes neurogenesis, neuritogenesis and synaptogenesis

- specific binding to ADGRF1 (lipidomics) (ADGRF1 [3]; ADGRD1 as control, specific binder: mean EIC ratio > 2 and P < 0.05, n = 3): bound specifically to ADGRF1
Molecule: CCCCCCCCCCCCCCCC(=O)OC[C@@H](O)COP(=O)([O-])OCC[N+](C)(C)C [LPC 16:0]
- EIC peak ratio, ADGRF1 versus ADGRD1 (mean) (ADGRF1 [3]; ADGRD1 protein as control, methanol:water lipid extract, P < 0.05, three independent experiments): > 2

- G protein activation of wild-type ADGRF1 in HEK293F cells (BRET assay with TRUPATH biosensors): EC50 of pD1 against that of pF1 [4]: 2 fold
B1: synthetic stalk peptide of ADGRD1 (pD1) (peptide)
peptide: TNFAILMQVVPLE

B2: F716^5.36bA (protein, UniProt Q6QNK2 26-874, looked up, variant F716A)
Adhesion G-protein coupled …: VYSRSQDHPGFQVLASASHYWPLENVDGIHELQDTTGDIVEGKVNKGIYLKEEKGVTLLYYGRYNSSCISKPEQCGPEGVTFSFFWKTQGEQSRPIPSAYGGQVISNGFKVCSSGGRGSVELYTRDNSMTWEASFSPPGPYWTHVLFTWKSKEGLKVYVNGTLSTSDPSGKVSRDYGESNVNLVIGSEQDQAKCYENGAFDEFIIWERALTPDEIAMYFTAAIGKHALLSSTLPSLFMTSTASPVMPTDAYHPIITNLTEERKTFQSPGVILSYLQNVSLSLPSKSLSEQTALNLTKTFLKAVGEILLLPGWIALSEDSAVVLSLIDTIDTVMGHVSSNLHGSTPQVTVEGSSAMAEFSVAKILPKTVNSSHYRFPAHGQSFIQIPHEAFHRHAWSTVVGLLYHSMHYYLNNIWPAHTKIAEAMHHQDCLLFATSHLISLEVSPPPTLSQNLSGSPLITVHLKHRLTRKQHSEATNSSNRVFVYCAFLDFSSGEGVWSNHGCALTRGNLTYSVCRCTHLTNFAILMQVVPLELARGHQVALSSISYVGCSLSVLCLVATLVTFAVLSSVSTIRNQRYHIHANLSFAVLVAQVLLLISFRLEPGTTPCQVMAVLLHYFFLSAFAWMLVEGLHLYSMVIKVFGSEDSKHRYYYGMGWGFPLLICIISLSFAMDSYGTSNNCWLSLASGAIWAAVAPALFVIVVNIGILIAVTRVISQISADNYKIHGDPSAFKLTAKAVAVLLPILGTSWVFGVLAVNGCAVVFQYMFATLNSLQGLFIFLFHCLLNSEVRAAFKHKTKVWSLTSSSARTSNAKPFHSDLMNGTRPGMASTKLSPWDKSSHSAHRVDLSAV
- Cell-surface expression (% of WT) (ADGRD1): 98 ± 3 % of WT

B3: H656^3.53bA (protein, UniProt Q6QNK2 26-874, looked up, variant H656A)
Adhesion G-protein coupled …: B2 Adhesion G-protein coupled … with H631A, A691F
- Cell-surface expression (% of WT) (ADGRD1): 86 ± 10 % of WT

B4: H605^2.50bA (protein, UniProt Q6QNK2 26-874, looked up, variant H605A)
Adhesion G-protein coupled …: B2 Adhesion G-protein coupled … with H580A, A691F
- Cell-surface expression (% of WT) (ADGRD1): 102 ± 7 % of WT

B5: K760^6.40bA (protein, UniProt Q6QNK2 26-874, looked up, variant K760A)
Adhesion G-protein coupled …: B2 Adhesion G-protein coupled … with A691F, K735A
- Cell-surface expression (% of WT) (ADGRD1): 126 ± 21 % of WT

B6: W773^6.53bA (protein, UniProt Q6QNK2 26-874, looked up, variant W773A)
Adhesion G-protein coupled …: B2 Adhesion G-protein coupled … with A691F, W748A
- Cell-surface expression (% of WT) (ADGRD1): 69 ± 2 % of WT

B7: Q798^7.49bA (protein, UniProt Q6QNK2 26-874, looked up, variant Q798A)
Adhesion G-protein coupled …: B2 Adhesion G-protein coupled … with A691F, Q773A
- Cell-surface expression (% of WT) (ADGRD1): 96 ± 18 % of WT

- fold decrease in G protein activation of wild-type ADGRD1 in HEK293F cells (BRET assay with TRUPATH biosensors): potency of pF1 against that of pD1 [5]: 59 fold
B8: synthetic stalk peptide of ADGRF1 (pF1) (peptide)
peptide: TSFSILMSPFVP
